Data: the DeepSol protein solubility set

Assay: soluble on expression in E. coli; label from the status in PepcDB or PDB records
In the case of “MLIANEVYHALNLEEVWFLPNQIPPHKQGRDITSVESRLQMLELATEAEEHFSICLEELSRKGPSYTYDTMLQLTKKYPDVQFHFIIGGDMVEYLPKWYNIEALLDLVTFVGVARPGYKLRTPYPITTVEIPEFAVSSSLLRERYKEKKTCKYLLPEKVQVYIERNGLYES”, the “soluble on expression in E. coli” value is reported as “not soluble”.
For “MLIFGFIGLFFLNIFSLHAQGIVTNKDAQEEFKWALNSYNNGIYDDALLSFKKILSFDPNNLDYHFWTGNVYYRLGYVEEALMEWRNLKDQGYKVPYLRHLISTIEQRRGIFSNYELNFKKLVKVASLDNSIYKRPHGYQITSLRADKYGGYYAANFVGNEILYFDVNNNVNALVKDGFSYLKSPYDVIEANNLLYVTLYSSDEIGVYDKVLGVKRKSIGNKGTKDGELLAPQYMAIDKRNYIYVSEWGNKRVSKFGLEGDFILHFGSRTSGYKGLLGPTGVTYLNENIYVADSLRNTIEVFDTSGNHLYSVFTSIEGIEGLSSDFVGNNVIVSSKDGVYKYSIAKKTITKILKADKMNSKISSSILDANNQMIVSDFNNAKVSVYKSDASLYDSLNVDVRRIIRLGGPKIYVELNVSSKSGLPVVGLKSENFSISNENYYIVNPKVAYNVNASKDINIAVVFDKSSYMKKYDTDQIVGLNALMELSKNKNFSFINATSVPIIDNIESLTNSIRNTSSLGPYSTDAVKTDVSLKLAGSGLMSKSSRRAVVYFSGGILNRKAFEKYSLDTIVSYYKNNDIRFYLILFGNDPINSKLQYLVNETGGAVIPFSSYEGVSKVYDLILEQKTGTYLLEYYYPGPQEPNKYFNLSVEANINQQTGRGEFAYFINLEHHHHHH”, the “soluble on expression in E. coli” value was “not soluble”.
In the case of “MLIRSAKPEDAEFIGSIRVAAWQAAYRGFMPDTYLASLDPGANLDELRAALRAENPPFTLRIAETEGQPIAFSILGKPRYNADQSIVELWALNVHPTHWRKGAGQQLVRQVLLDAKEQKFVSVELWCIQGNLAAQRLYEICGFVPNSQVRTTSSLTGYPLHELAYTYAL”, the “soluble on expression in E. coli” value is reported as “not soluble”.
For “MLIRYRKNYEKIAMGLLSFMPTEKDLKRLQQTMKQYETNNDWQLFLWKEGDDIVGIIGVLLRAPDVVEIQHISVNPSHRHQGIGKQMVKALKEVYPGRRLCANEWTASFFDKCHACNE”, the “soluble on expression in E. coli” value was “not soluble”.
In the case of “MLISERFGIKGRADAVRRGMPVELKTGKNLKRSPRFQDKVQAACYGLLLADDIADPPDTGTLLYTKNSALDRSEESGDLSPAKEFSIGPGFLKYVLRVRNEIAAAEYDMSVPTGFEADANCDYCFEQDTCMVVSGRLDQESKAGQLGEPLPEPERAYFERLYRAIEEERREVHAEYRKLWEQSAAERADDDRALVDLDPLGREPLDGGRWALSARRTSDAVSKIREGDRVLASDGHPTQGTAELATVRHLDDEIVVVADEPFELRRIDVYPSELGVDRQLEHHHHHH”, the “soluble on expression in E. coli” value is reported as “soluble”.
With “MLITSYNPSELGDTLITILRPDTATQTIETHANVTRISDADSGETLGYNFFDVSKTLGDLDANGQVHLTAEQVEQLNNLLKTNDFEPELVLDTDPKFVVGYVESAEAHPKSDHLQITKTNVGLEQPLQIVSGSPNMQANILVVVAKVGAMMPSGLIIWPGELRGVESDGMIVSGRELRLPNAPQRPGALILPADYQPVGAAFDFKRAQTLFTALEHHHHHH” the “soluble on expression in E. coli” value was “not soluble”.
In the case of “MLKDQANQLEFPRDFLGISLADQPNKYYFIIRTQRIVLEADSSIQLIMEKLQSYKSKVALYFDGFQYQLGDFRLRVGKVVPTHSENVRGIVMEVEYLPISSMEKAQKVMEEFLEIWNEALAKRSLPGKFVNIDLNFGEFGLGDIYTPQHTAVRYALVMAHMIATVQAVRG”, the “soluble on expression in E. coli” value is reported as “soluble”.
With “MLKEAIYHRPKDNYAYAYDEKTIHIRIRTKRDDVQSTTLIYGDPYEWKDGKWISSSTPMKKTGSTALFDYWFISIEPKFKRLRYGFELKNDTDTLIYAERGFFSTTPNDDVGNFFCFPFIHANDVFKAPSWIKDTVWYQIFPERFANGDHTLNPENTLPWGSAEPTPTNFFGGDFAGIIQNLDYLVKLGISGIYFTPIFKAHSNHKYDTIDYMEIDPQFGTKETFKELVQACHTHGIKVMLDAVFNHSGYFFDKFQDVLQNGEQSAYKEWFHIHEFPIRTEPLPNYDTFAFTPYMPKLNTAHPDVKEYLLEVGRYWVREFNIDGWRLDVANEVDHNFWREFRSEIKALNSEVYILGEIWHDALPWLQGDQFDAVMSYPVTNALLSYFANDSIKANEFMKQITESLHSYSMNVNEAAFHLLDSHDTPRILTTCNGDKNKLKLLYVFHLSFIGSPCIYYGDEIGMDGGMDPDCRKCMVWDTEEQDHTLFTHVQTLISLRKQYKAFGGHGTFQFIEANDEYNYISYTKTYEDETIFFVLNPTNSDITASLPLHVTGKKIINIYTNEEFSAEASVLQVTLPPYGFSILKW” the “soluble on expression in E. coli” value was “not soluble”.
For “MLKFRASFLSLALMLAVPFAPQAVAKTAATTAASQPEIASGSAMIVDLNTNKVIYSNHPDLVRPIASITKLMTAMVVLDARLPLDEILKVDISQTPEMKGVYSRVRLNSEISRKNMLLLALMSSENRAAASLAHYYPGGYNAFIKAMNAKAKALGMTHTRFVEPTGLSIHNVSTARDLTKLLIATKQYPLIGQLSTTREDMATFSHPAYTLPFRNTNHLVYRDNWNIQLTKTGFTNAAGHCLVMRTVINNKPVALVVMDAFGKYTHFADASRLRTWIETGKVMPVPAAALSYKKQKAAQMAAASASAGAQTAQND”, the “soluble on expression in E. coli” value was “not soluble”.
In the case of “MLKHIISAYNFSRDELEDIFALTDKYSKNLNDTRKILSGKTISIAFFEPSTRTYLSFQKAIINLGGDVIGFSGEESTSVAKGENLADTIRMLNNYSDGIVMRHKYDGASRFASEISDIPVINAGDGKHEHPTQAVIDIYTINKHFNTIDGLVFALLGDLKYARTVNSLLRILTRFRPKLVYLISPQLLRARKEILDELNYPVKEVENPFEVINEVDVLYVTRIQKERFVDEMEYEKIKGSYIVSLDLANKMKKDSIILHPLPRVNEIDRKVDKTTKAKYFEQASYGVPVRMSILTKIYGE”, the “soluble on expression in E. coli” value is reported as “soluble”.
With “MLKIDAIAFFGSKTKLANVAGVRLASVAAWGELVPEGRAMRLQEASGGELQYDPKVYDEYRKAKRAGRLNNENHH” the “soluble on expression in E. coli” value was “not soluble”.
With “MLKKLSPIFSNITGVVRYQDLAYVASVSDEIQEQNIAHSYVTEWDCGTWCVAGEDDDMLPWEIVSATVVHEPVEQALFLGARGQVFCMGSGDIHEEQLPDGDDAIGGRGNMRGVACIDGVAYACGMDRQVYRRFDENDWRAIDTGARPPAGSEAVVGFEAIGGFGAREIYAVGWDGEIWQYDGKRWQPRESPTNLILTAICCAEDGSVYACGQAGTLLRGRNDHWEIIAQDDVDEDLWSLAWFDGALYVSSATAVYTLVGGHLKEVDFGDEQPQRCFHLSAADGVLWSIAAKDIFSFDGQQWTRID” the “soluble on expression in E. coli” value was “not soluble”.
For “MLKTNSSRDGKIKLTVDQMLGKLARWIRLMGYDVYYPAGNVSDNEIIEVSKNEGRILITKDYELYSRYPLSIYELYSNIDDQLYDFVFHFRKRTEEEFKRCPVCNGKLVKVYASPHVLNHRDLYRCEFCGKLYWKGTHYKKIYRKLKSLEKKSGAGRLEHHHHHH”, the “soluble on expression in E. coli” value was “not soluble”.
With “MLKVKKEVLEKMIKQAERDYPYETCGLLIGKSEGGIRIAYEAFETPNANPDRKHDRYEIAPKDYMRAEDYAISKGMEIVGVYHSHPDHPDRPSQFDLQRAFPDLSYIIFSVQKGKVASYRSWELKGDKFEEEEVEVFE” the “soluble on expression in E. coli” value was “not soluble”.
In the case of “MLLEPLKQLKQADARLNMTQGVLEGVVGEELGVLPGMDSIFSMLELERLVGFFRQATRKNHKGKPFDVIIYDGISTEETLRMIGLSSKTRLYAKYLRSLAEKTDLGRLTSPSIMRFVDESMNINSNKSPFDGMTSPAMWDTLERFLETGASAWRDPERFRSFLVMDPNNPMSVKAALRYWGCTVQAGSHVSGAFAISSSHLTSQIPKADFVPLPFASASVPFTITGLDWDKILLDQANSSIRELLSETVSHGTSLTQTVMFDTAKKLVTLFMPGFEKSEIKLYQYRGGSELLIEAGDQRRVIHLPSQIQGKVGGAKFVDRSLIVTMR”, the “soluble on expression in E. coli” value is reported as “soluble”.
With “MLLHLIYGPTCSGKTDMAIQIAQETGWPVVALDRVQCCPQIATGSGRPLESELQSTRRIYLDSRPLTEGILDAESAHRRLIFEVDWRKSEEGLILEGGSISLLNCMAKSPFWRSGFQWHVKRLRLGDSDAFLTRAKQRVAEMFAIREDRPSLLEELAELWNYPAARPILEDIDGYRCAIRFARKHDLAISQLPNIDAGRHVELIEAIANEYLEHALSQERDFPQWPEDGAGQPVCPVTLTRIRGSRSHHHHHH” the “soluble on expression in E. coli” value was “soluble”.
For “MLLLQFSNMVEPTGPAIVEDERTKALNSYRRKLAECRDIEQKLKDLRKKESEMTKQFDKSENDIKSLQSVGQIVGEVLKQLSEEKFIVKATNGPRYVVGCRRSINKEELKQGTRVSLDMTTLTIMRQLPREVDPLVYKMSHEDPGNISYSDVGGLAEQIRELREVVELPLINPELFKRVGITPPKGCLLFGPPGTGKTLLARAVASQLDCNFLKVVSSAIVDKYIGESARMIREMFNYARDHQPCIVFMDEIDAIGGRRFSEGTSADREIQRTLMELLNQLDGFDSLGKVKVIMATNRPDTLDPALLRPGRLDRKIEIGLPNEQSRLEILKIHSNKITKHGEIDFEAVVKLSDGFSAADLRNVCTEAGMFAIRAEREFVIDEDFMKAVRKVGDAKRLETKLDYKPV”, the “soluble on expression in E. coli” value was “not soluble”.
For “MLLNLQKILKKWVICTLPKPNVTFLAIKFFNLKNEFLFFSKFCKKQPKFEILNVSYCSQNFQKYRIQYLNYFKISTFFSIKKSHIQV”, the “soluble on expression in E. coli” value was “not soluble”.
In the case of “MLLPKFLLLTAFLEFASAICADSNDQEIKGFCFKFVTQQLTFTDARTWCHLKNPVGPSYLAYVPSQDTSTYLAFYARSAFGADAEVFWIGLSRNASSGSLSWDNGLPVAYTNFGTNVGKNYFTESISNTKWDTLGDGDLNFFVCSYAPIVNSTTMTSITGTTKRMTTTTIEKLNCKPGDHQIILFAYSNDLAPSVVTDALYYSSLSSQSVTYAVSRFDLRQPEDIQYFSDYSLFSSYVSSHLPDYTLGFEEATTGSNVFEVINKFYDNTQATCGSNLIILSKRYPNTADVSNIVLKVRKSQGMVNFLASHAPSGGTVSQGLYDLCSLTNGIYSIGRDSSFSNMIESMPIRYRYAIYADNPKVSGQGSQTLASMSVPADGTYYLSMMLQNHTPVNTTQSVLLHWYSPYSRYSSTASVHGLSFETNNNGANSEILDAAIYNVTLDFVYFTSETMQIRFYGTSTDHWLPYAD”, the “soluble on expression in E. coli” value is reported as “not soluble”.
For “MLMKVAEFERLFRQAAGLDVDKNDLKRVSDFLRNKLYDLLAVAERNAKYNGRDLIFEPDLPIAKGLQETLQEFRRMDTALELKPVLDALAALPPLDLEVAEDVRNLLPELAGALVVAYARVLKELDPALKNPQTEHHERAERVFNLLL”, the “soluble on expression in E. coli” value was “soluble”.
In the case of “MLNDVFILTQIKEGNIKAFETLFRQYYTPLRLYAASITGVPDVAEEIVEELFYVFWKDREKLEIFHSVKNYLYRSVRNRSIQYCEHQDVKRRYQDAILSVPVNIASPDPQEQIEYKELQQIINRTLEKLPERRLHIFRLHHTEGKKYSEIASLLSLSVKTVEKEMTRALRTLRKEIENYIQIS”, the “soluble on expression in E. coli” value is reported as “not soluble”.
In the case of “MLNNPVGWFEIYVNDMERAKTFYETVLKVSLEEMPNPTSMPIKMLTFPSNMEKYGASGALVKMEGICAGGGGTLIYFSSDDCAVEQERIVAAGGQIHTPKMSIGEYGFITLAVDTEGNLFGLHSMQ”, the “soluble on expression in E. coli” value is reported as “not soluble”.
With “MLNQLDNLTERVRGSNKLVDRWLHVRKHLLVAYYNLVGIKPGKESYMRLNEKALDDFCQSLVDYLSAGHFSIYERILHKLEGNGQLARAAKIWPQLEANTQQIMDYYDSSLETAIDHDNYLEFQQVLSDIGEALEARFVLEDKLILLVLDAARVKHPA” the “soluble on expression in E. coli” value was “soluble”.
